Measured values taken from patent publication US20240261333A1, “NOVEL TARGETS FOR ENHANCING ANTI-TUMOR IMMUNITY” (THE BROAD INSTITUTE, INC., priority 2021, published 2024).

Key:
RPL10A = RPL10A (UniProt P62906); assay: co-IP with mouse IgG control, mass spectrometry; lysate of N-FLAG B3GNT2 cells
SSR1 = SSR1 (UniProt P43307); assay: as above
ATXN2L = ATXN2L (UniProt Q8WWM7); assay: as above
EEF1A1 = EEF1A1 (UniProt P68104); assay: as above
SLIRP = SLIRP (UniProt Q9GZT3); assay: as above
UBA52 = UBA52 (UniProt P62987); assay: as above
ACTR3 = ACTR3 (UniProt P61158); assay: as above
TRIM21 = TRIM21 (UniProt P19474); assay: as above
TRIM21, sequence (P19474 whole entry): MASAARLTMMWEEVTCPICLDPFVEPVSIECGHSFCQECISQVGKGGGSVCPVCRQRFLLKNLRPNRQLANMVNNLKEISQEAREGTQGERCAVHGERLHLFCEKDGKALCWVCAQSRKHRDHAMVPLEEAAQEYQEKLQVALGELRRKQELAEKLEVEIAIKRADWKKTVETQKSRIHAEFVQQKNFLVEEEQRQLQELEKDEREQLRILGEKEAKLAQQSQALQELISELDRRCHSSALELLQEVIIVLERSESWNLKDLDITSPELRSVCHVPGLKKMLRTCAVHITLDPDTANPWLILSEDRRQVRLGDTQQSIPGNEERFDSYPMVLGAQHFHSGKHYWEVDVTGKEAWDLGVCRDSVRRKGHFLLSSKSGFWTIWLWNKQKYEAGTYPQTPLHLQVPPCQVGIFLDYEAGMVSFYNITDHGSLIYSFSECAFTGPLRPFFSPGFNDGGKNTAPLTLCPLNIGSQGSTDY

STRAP = STRAP (UniProt Q9Y3F4); assay: as above
YBX3 = YBX3 (UniProt P16989); assay: as above
YBX3, sequence (P16989 2-372 limits assumed): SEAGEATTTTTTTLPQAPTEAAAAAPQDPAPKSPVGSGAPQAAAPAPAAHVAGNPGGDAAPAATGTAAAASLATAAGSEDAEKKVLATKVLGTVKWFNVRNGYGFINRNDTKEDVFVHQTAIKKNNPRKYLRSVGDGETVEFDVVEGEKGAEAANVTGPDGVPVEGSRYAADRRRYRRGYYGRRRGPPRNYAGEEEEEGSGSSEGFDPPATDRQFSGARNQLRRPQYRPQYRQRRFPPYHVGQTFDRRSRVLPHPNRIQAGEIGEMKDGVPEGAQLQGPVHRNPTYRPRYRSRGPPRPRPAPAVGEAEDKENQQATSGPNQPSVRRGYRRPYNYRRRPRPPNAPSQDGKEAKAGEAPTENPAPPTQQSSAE

RPS11 = RPS11 (UniProt P62280); assay: as above
HBA1 = HBA1 (UniProt P69905); assay: as above
RPL35A = RPL35A (UniProt P18077); assay: as above
SERPINB12 = SERPINB12 (UniProt Q96P63); assay: as above
RPL31 = RPL31 (UniProt P62899); assay: as above
AHNAK = AHNAK (UniProt Q09666); assay: as above
RPN1 = RPN1 (UniProt P04843); assay: as above
LYZ = LYZ (UniProt P61626); assay: as above
ENO1 = ENO1 (UniProt P06733); assay: as above
ENO1, sequence (P06733 2-434 limits assumed): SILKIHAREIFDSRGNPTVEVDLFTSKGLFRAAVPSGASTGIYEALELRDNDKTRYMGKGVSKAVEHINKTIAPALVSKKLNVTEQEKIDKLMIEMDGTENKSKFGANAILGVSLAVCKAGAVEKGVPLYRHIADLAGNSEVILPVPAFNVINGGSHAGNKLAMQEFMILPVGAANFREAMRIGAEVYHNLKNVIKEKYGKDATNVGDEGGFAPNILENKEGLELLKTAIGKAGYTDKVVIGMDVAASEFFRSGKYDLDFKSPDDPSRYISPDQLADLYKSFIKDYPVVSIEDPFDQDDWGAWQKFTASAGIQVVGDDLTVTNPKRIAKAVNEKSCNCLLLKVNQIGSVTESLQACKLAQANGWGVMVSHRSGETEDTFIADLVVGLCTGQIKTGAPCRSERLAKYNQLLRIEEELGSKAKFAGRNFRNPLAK

RPL36 = RPL36 (UniProt Q9Y3U8); assay: as above
TPI1 = TPI1 (UniProt P60174); assay: as above
S100A9 = S100A9 (UniProt P06702); assay: as above
HBB (human) = HBB (human) (UniProt P68871); assay: co-IP with IgG control, lysate of N-FLAG B3GNT2 cells, mass spectrometry
HBB (human), sequence (P68871 2-147 limits assumed): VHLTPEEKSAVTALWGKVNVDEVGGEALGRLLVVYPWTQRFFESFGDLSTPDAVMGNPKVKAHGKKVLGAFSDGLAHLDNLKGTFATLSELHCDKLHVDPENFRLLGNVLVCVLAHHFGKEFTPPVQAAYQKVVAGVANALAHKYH

SRSF6 (human) = SRSF6 (human) (UniProt Q13247); assay: as above
RUVBL2 (human) = RUVBL2 (human) (UniProt Q9Y230); assay: as above
RPS20 (human) = RPS20 (human) (UniProt P60866); assay: as above
RPL17 (human) = RPL17 (human) (UniProt P18621); assay: as above
CLTC (human) = CLTC (human) (UniProt Q00610); assay: as above
P4HA2 (human) = P4HA2 (human) (UniProt O15460); assay: as above
[1] = biological target: P0AA25.2 [thioredoxin: P0AA25]; assay: as above
TGM1 (human) = TGM1 (human) (UniProt P22735); assay: as above
MMS19 (human) = MMS19 (human) (UniProt Q96T76); assay: as above
MMS19 (human), sequence (Q96T76 other isoform, or with tags, fused parts or gaps limits assumed): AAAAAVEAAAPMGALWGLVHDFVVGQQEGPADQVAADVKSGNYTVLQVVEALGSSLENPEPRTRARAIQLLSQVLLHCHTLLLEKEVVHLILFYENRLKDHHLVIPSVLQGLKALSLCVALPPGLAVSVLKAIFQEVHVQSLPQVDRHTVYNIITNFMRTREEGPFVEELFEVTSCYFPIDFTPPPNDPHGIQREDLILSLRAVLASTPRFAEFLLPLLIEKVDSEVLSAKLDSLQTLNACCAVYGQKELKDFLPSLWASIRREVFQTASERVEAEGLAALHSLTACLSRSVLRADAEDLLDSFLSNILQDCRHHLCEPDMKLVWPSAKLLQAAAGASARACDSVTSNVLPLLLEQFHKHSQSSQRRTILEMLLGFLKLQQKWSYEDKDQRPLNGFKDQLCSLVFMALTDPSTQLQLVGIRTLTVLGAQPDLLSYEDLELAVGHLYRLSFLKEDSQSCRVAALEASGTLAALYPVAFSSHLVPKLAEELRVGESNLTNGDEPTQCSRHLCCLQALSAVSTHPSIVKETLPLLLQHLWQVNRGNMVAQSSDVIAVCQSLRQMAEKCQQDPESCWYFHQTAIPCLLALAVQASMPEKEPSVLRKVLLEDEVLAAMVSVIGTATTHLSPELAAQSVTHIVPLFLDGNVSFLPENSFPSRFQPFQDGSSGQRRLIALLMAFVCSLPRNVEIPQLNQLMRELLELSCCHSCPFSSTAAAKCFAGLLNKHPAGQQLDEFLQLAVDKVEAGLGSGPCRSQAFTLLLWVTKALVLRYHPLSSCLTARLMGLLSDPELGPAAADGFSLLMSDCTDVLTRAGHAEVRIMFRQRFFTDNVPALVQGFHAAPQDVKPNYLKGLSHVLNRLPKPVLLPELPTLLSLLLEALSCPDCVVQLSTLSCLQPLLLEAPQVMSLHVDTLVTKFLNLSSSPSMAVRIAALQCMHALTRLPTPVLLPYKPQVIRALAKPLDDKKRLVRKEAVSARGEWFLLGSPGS

TPM2 (human) = TPM2 (human) (UniProt P07951); assay: as above
LAMC1 (human) = LAMC1 (human) (UniProt P11047); assay: as above
LAMC1 (human), sequence (P11047 34-1609 limits assumed): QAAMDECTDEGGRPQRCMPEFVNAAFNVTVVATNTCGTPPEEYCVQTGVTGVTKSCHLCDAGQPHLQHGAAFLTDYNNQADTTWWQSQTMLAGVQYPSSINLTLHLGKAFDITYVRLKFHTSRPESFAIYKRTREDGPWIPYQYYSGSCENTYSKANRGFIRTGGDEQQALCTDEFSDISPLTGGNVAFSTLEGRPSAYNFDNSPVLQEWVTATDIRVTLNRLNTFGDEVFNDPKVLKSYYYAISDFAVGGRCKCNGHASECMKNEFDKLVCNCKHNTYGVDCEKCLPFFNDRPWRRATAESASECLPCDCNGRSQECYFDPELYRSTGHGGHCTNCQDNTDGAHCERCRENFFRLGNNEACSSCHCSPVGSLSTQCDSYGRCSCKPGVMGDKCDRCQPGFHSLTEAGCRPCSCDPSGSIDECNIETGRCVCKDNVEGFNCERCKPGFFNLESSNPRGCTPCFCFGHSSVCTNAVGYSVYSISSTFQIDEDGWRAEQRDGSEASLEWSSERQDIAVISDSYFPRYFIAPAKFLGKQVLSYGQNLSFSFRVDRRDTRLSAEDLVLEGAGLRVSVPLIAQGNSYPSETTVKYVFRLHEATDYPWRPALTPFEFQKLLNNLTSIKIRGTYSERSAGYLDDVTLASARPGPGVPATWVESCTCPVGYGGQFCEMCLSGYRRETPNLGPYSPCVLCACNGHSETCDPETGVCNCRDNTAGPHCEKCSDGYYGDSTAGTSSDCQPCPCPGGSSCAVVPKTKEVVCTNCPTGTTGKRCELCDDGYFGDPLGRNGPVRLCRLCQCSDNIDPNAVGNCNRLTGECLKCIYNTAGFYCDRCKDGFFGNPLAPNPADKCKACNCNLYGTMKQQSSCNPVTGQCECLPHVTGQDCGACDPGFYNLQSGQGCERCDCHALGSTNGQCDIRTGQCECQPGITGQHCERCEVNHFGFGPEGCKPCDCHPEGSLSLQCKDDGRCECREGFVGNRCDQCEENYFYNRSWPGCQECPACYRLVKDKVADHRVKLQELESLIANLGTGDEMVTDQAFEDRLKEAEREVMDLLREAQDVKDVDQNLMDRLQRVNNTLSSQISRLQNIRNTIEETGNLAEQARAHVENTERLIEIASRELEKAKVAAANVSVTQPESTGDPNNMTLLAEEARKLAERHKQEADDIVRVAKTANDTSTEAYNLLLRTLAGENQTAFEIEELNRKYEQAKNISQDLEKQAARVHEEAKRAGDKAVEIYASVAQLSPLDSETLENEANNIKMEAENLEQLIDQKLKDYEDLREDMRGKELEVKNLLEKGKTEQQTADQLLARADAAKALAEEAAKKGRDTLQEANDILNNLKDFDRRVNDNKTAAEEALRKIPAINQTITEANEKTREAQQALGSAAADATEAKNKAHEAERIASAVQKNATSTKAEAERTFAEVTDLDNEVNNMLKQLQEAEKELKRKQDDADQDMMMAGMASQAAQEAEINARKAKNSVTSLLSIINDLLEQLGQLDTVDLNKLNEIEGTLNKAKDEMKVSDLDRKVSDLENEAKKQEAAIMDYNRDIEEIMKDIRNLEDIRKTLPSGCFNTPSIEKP

CPSF7 (human) = CPSF7 (human) (UniProt Q8N684); assay: as above
CPSF7 (human), sequence (Q8N684 whole entry): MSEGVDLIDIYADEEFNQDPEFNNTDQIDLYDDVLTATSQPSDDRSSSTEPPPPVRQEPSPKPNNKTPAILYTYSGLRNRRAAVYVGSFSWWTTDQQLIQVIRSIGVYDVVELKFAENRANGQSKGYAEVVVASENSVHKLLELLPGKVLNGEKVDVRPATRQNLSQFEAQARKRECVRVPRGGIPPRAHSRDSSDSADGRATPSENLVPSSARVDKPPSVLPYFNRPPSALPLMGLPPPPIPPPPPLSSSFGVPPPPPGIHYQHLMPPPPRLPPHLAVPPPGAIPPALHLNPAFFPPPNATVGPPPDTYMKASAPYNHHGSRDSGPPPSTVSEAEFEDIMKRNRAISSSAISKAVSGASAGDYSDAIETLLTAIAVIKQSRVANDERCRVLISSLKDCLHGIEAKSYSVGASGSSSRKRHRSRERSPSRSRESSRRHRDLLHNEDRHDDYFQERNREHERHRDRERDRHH

RPS24 (human) = RPS24 (human) (UniProt P62847); assay: as above
SBSN (human) = SBSN (human) (UniProt Q6UWP8); assay: as above
JUP (human) = JUP (human) (UniProt P14923); assay: as above

EEF1A1, sequence (P68104 2-462 limits assumed): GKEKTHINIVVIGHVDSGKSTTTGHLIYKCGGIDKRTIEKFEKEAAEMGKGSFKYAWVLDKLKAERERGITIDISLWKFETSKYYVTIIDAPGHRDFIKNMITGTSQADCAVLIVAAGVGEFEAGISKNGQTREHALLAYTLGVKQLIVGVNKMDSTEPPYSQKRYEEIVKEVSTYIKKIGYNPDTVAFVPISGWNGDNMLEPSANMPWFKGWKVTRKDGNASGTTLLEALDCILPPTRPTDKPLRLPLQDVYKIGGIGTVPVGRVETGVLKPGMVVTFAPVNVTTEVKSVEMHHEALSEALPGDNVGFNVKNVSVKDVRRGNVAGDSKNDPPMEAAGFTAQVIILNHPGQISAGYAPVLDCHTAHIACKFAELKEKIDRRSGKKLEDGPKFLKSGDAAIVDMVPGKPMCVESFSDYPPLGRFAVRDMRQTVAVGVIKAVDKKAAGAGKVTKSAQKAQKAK

Work on “IgG control (Millipore Sigma 12-371) (antibody)” yielded a co-IP mass spectrometry count (RPL10A) of 4, a co-IP mass spectrometry count (SSR1) of 0 and a co-IP mass spectrometry count (ATXN2L) of 3. It also gave a co-IP mass spectrometry count (EEF1A1) of 8, a co-IP mass spectrometry count (SLIRP) of 0 and a co-IP mass spectrometry count (UBA52) of 5. It also gave a co-IP mass spectrometry count (ACTR3) of 3, a co-IP mass spectrometry count (TRIM21) of 0 and a co-IP mass spectrometry count (STRAP) of 0. It also gave a co-IP mass spectrometry count (YBX3) of 0, a co-IP mass spectrometry count (RPS11) of 8 and a co-IP mass spectrometry count (HBA1) of 3. For the same substance, the co-IP mass spectrometry count (RPL35A) was 0, the co-IP mass spectrometry count (SERPINB12) was 0 and the co-IP mass spectrometry count (RPL31) was 0. It also gave a co-IP mass spectrometry count (AHNAK) of 0, a co-IP mass spectrometry count (RPN1) of 0 and a co-IP mass spectrometry count (LYZ) of 4. The co-IP mass spectrometry count (ENO1) was 2, the co-IP mass spectrometry count (RPL36) was 0 and the co-IP mass spectrometry count (TPI1) was 2. It also gave a co-IP mass spectrometry count (S100A9) of 0, a co-IP/MS count, N-term IgG (HBB (human)) of 0 and a co-IP/MS count, N-term IgG (SRSF6 (human)) of 3. The co-IP/MS count, N-term IgG (RUVBL2 (human)) was 0, the co-IP/MS count, N-term IgG (RPS20 (human)) was 4 and the co-IP/MS count, N-term IgG (RPL17 (human)) was 0. For the same substance, the co-IP/MS count, N-term IgG (CLTC (human)) was 6, the co-IP/MS count, N-term IgG (P4HA2 (human)) was 0 and the co-IP/MS count, N-term IgG [1] was 3. For the same substance, the co-IP/MS count, N-term IgG (TGM1 (human)) was 9, the co-IP/MS count, N-term IgG (MMS19 (human)) was 0 and the co-IP/MS count, N-term IgG (TPM2 (human)) was 0. It also gave a co-IP/MS count, N-term IgG (LAMC1 (human)) of 0, a co-IP/MS count, N-term IgG (CPSF7 (human)) of 8 and a co-IP/MS count, N-term IgG (RPS24 (human)) of 4. The co-IP/MS count, N-term IgG (SBSN (human)) was 25 and the co-IP/MS count, N-term IgG (JUP (human)) was 39.
